How the values were obtained:
[1] = biological target: MPV pre-fusion F protein (conformationally stabilized, CAN97-83 MPV strain) (human metapneumovirus (hMPV), strain …, UniProt Q6WB98 19-489); test: ELISA
[2] = biological target: PRE (human metapneumovirus (hMPV), strain …, UniProt Q6WB98 19-489); test: ELISA; pre-fusion F
[3] = biological target: POST (human metapneumovirus (hMPV), strain …, UniProt Q6WB98 19-489); test: ELISA; post-fusion F
POST, sequence (Q6WB98 19-489): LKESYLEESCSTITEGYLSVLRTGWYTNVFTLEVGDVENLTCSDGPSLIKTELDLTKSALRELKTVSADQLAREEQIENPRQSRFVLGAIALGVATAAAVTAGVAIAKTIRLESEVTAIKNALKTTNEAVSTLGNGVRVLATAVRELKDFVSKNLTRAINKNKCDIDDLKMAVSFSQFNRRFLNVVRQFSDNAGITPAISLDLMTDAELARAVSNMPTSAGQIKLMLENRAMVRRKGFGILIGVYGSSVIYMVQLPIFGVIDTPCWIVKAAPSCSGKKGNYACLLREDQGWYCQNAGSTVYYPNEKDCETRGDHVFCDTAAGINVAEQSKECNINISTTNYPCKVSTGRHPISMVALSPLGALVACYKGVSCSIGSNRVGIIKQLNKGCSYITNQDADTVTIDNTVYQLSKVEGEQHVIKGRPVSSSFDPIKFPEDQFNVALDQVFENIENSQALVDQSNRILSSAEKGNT

MPV pre-fusion F protein (conformationally stabilized, CAN97-83 MPV strain), sequence (Q6WB98 19-489): as above
PRE, sequence (Q6WB98 19-489): as above

B1: MPE33_S36A (antibody, V domains shown)
VH: QVQLQESGPGLVKPSQTLSLTCTVSGDSISNGAYCWNWVRQPAGKGLEWIGRIYPIGNTNYNPSLKSRVTISLDTSKNQFSLKLASVTAADTAVYYCAREARIFEGYYYYYYGLDVWGQGTTVTVSS
VL: EIVLTQSPATLSLSPGERATLSCRASQTISSYLAWYQQKPGQAPRLLISDVSKRATGIPARFSGSGSGTDFTLTISSLEPEDFAVYYCHQRSNWDTFGQGTKLEIK
**Q.** With B1 as the binder, how does the EC50 [1] read?
**A.** The EC50 was 2.31 ng/mL.

B2: MPE33_C38S (antibody, V domains shown)
VH: QVQLQESGPGLVKPSQTLSLTCTVSGDSISNGSYSWNWVRQPAGKGLEWIGRIYPIGNTNYNPSLKSRVTISLDTSKNQFSLKLASVTAADTAVYYCAREARIFEGYYYYYYGLDVWGQGTTVTVSS
VL: EIVLTQSPATLSLSPGERATLSCRASQTISSYLAWYQQKPGQAPRLLISDVSKRATGIPARFSGSGSGTDFTLTISSLEPEDFAVYYCHQRSNWDTFGQGTKLEIK
**Q.** B2 was tested. Which EC50 [1] did it give?
**A.** Its EC50 is 2.39 ng/mL.

B3: MPE33_N34S_C38Y (antibody, V domains shown)
VH: QVQLQESGPGLVKPSQTLSLTCTVSGDSISSGSYYWNWVRQPAGKGLEWIGRIYPIGNTNYNPSLKSRVTISLDTSKNQFSLKLASVTAADTAVYYCAREARIFEGYYYYYYGLDVWGQGTTVTVSS
VL: EIVLTQSPATLSLSPGERATLSCRASQTISSYLAWYQQKPGQAPRLLISDVSKRATGIPARFSGSGSGTDFTLTISSLEPEDFAVYYCHQRSNWDTFGQGTKLEIK
**Q.** With B3 as the binder, how does the EC50 [1] read?
**A.** The EC50 was 2.87 ng/mL.

B4: MPE33_C38Y (antibody, V domains shown)
VH: QVQLQESGPGLVKPSQTLSLTCTVSGDSISNGSYYWNWVRQPAGKGLEWIGRIYPIGNTNYNPSLKSRVTISLDTSKNQFSLKLASVTAADTAVYYCAREARIFEGYYYYYYGLDVWGQGTTVTVSS
VL: EIVLTQSPATLSLSPGERATLSCRASQTISSYLAWYQQKPGQAPRLLISDVSKRATGIPARFSGSGSGTDFTLTISSLEPEDFAVYYCHQRSNWDTFGQGTKLEIK
**Q.** For B4, which EC50 [1] is on record?
**A.** Its EC50 is 2.5 ng/mL.

B5: MPE33_N34Q (antibody, V domains shown)
VH: QVQLQESGPGLVKPSQTLSLTCTVSGDSISQGSYCWNWVRQPAGKGLEWIGRIYPIGNTNYNPSLKSRVTISLDTSKNQFSLKLASVTAADTAVYYCAREARIFEGYYYYYYGLDVWGQGTTVTVSS
VL: EIVLTQSPATLSLSPGERATLSCRASQTISSYLAWYQQKPGQAPRLLISDVSKRATGIPARFSGSGSGTDFTLTISSLEPEDFAVYYCHQRSNWDTFGQGTKLEIK
**Q.** B5 was tested. Which EC50 [1] did it give?
**A.** Its EC50 is 1.96 ng/mL.

B6: MPE33_N34S (antibody, V domains shown)
VH: QVQLQESGPGLVKPSQTLSLTCTVSGDSISSGSYCWNWVRQPAGKGLEWIGRIYPIGNTNYNPSLKSRVTISLDTSKNQFSLKLASVTAADTAVYYCAREARIFEGYYYYYYGLDVWGQGTTVTVSS
VL: EIVLTQSPATLSLSPGERATLSCRASQTISSYLAWYQQKPGQAPRLLISDVSKRATGIPARFSGSGSGTDFTLTISSLEPEDFAVYYCHQRSNWDTFGQGTKLEIK
**Q.** Which EC50 [1] does the source give for B6 here?
**A.** Its EC50 is 1.56 ng/mL.

B7: MPE33_C38A (antibody, V domains shown)
VH: QVQLQESGPGLVKPSQTLSLTCTVSGDSISNGSYAWNWVRQPAGKGLEWIGRIYPIGNTNYNPSLKSRVTISLDTSKNQFSLKLASVTAADTAVYYCAREARIFEGYYYYYYGLDVWGQGTTVTVSS
VL: EIVLTQSPATLSLSPGERATLSCRASQTISSYLAWYQQKPGQAPRLLISDVSKRATGIPARFSGSGSGTDFTLTISSLEPEDFAVYYCHQRSNWDTFGQGTKLEIK
**Q.** For B7, which EC50 [1] is on record?
**A.** Its EC50 is 1.51 ng/mL.

B8: MPE8 (antibody, V domains shown)
VH: EVQLVESGGGLVKPGGSLRLSCAASGFTFSSYSMNWVRQAPGKGLEWVSSISASSSYSDYADSAKGRFTISRDNAKTSLFLQMNSLRAEDTAIYFCARARATGYSSITPYFDIWGQGTLVTVSS
VL: QSVVTQPPSVSGAPGQRVTISCTGSSSNIGAGYDVHWYQQLPGTAPKLLIYDNNNRPSGVPDRFSASKSGTSASLAITGLQAEDEADYYCQSYDRSLSGVFGTGTKVTVL
**Q.** B8 was tested. Which EC50 [2] did it give?
**A.** Its EC50 is 34.8 ng/mL.

**Q.** And the EC50 [3]?
**A.** Its EC50 is 769000 ng/mL.
